This note sets out measurements from paper PMC4370877.

For this experiment, the target named is recombinant Small basic protein (rSbp) (S. epidermidis). Put plainly: ELISA; competition; rSbp (150 μg/ml in PBS) pre-incubated with soluble rDomain-B (0.4-100 μg/ml) for 1 h at 4°C, then loaded into rDomain-B-coated wells; inhibition = (1 - A405 with rDomain-B / A405 without) x 100.

On to “recombinantly expressed Aap domain-B (rDomain-B) (domain or fragment)”, for which the percent inhibition of rSbp binding to immobilized rDomain-B turned out to be 80%.
